Data on one substance can be found in article doi:10.1101/2020.12.23.423990.

In the test the target is nucleocapsid variant NC-1 (circularly permuted Aquifex aeolicus lumazine synthase with the arginine-rich peptide λN+ appended) (Aquifex aeolicus). Put plainly: cryo-EM structure.

The stoichiometry N is the number of molecules, sites or subunits per partner or assembly.

Several values for one entry are separate records, joined by “and”; a condition that tells them apart may be missing. Equal values may be shown once.

In the case of “nucleocapsid variant NC-1 (circularly permuted Aquifex aeolicus lumazine synthase with the arginine-rich peptide λN+ appended)”, the stoichiometry N is 180 and 120.
